{"source": "paper PMC7218866", "about": "“Impact of Self-Assembled Monolayer Design and Electrochemical Factors on Impedance-Based Biosensing”", "binders": {"B1": {"name": "lysozyme aptamer (thiolated) (ssDNA)", "DNA": "AGCAGCACAGAGGTCAGATGGCAGGTAAGCAGGCGGCTCACAAAACCATTCGCATGCGGC", "modifications": "5' thiol-C6 (SH-C6), immobilized on gold in SAM"}}, "biological_target": "lysozyme (UniProt P00698 19-147)", "sequence (P00698 19-147)": "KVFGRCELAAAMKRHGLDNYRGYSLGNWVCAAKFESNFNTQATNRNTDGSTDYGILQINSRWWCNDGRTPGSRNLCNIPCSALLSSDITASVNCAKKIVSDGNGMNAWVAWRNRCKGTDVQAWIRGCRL", "test": "electrochemical impedance spectroscopy (EIS); dense aptamer SAM (no MCH dilution), ferricyanide reporter; RCT change significant from 8 nM (LOD), up to 12%; 1x HBS, pH 7.4, redox reporter (ferricyanide or methylene blue) in solution; aptamer on gold electrode; temperature not stated", "settings": "protein: commercial"}
{"binder": "B1", "values": [{"measurement": "binding result", "result": "binds"}]}
